# Test results published in PMC3536657 (PLoS Pathogens, 2013).
# B1: mature IgG b12 (antibody, V domains shown)
# VH: QVQLVQSGAEVKKPGASVKVSCQASGYRFSNFVIHWVRQAPGQRFEWMGWINPYNGNKEFSAKFQDRVTFTADTSANTAYMELRSLRSADTAVYYCARVGPYSWDDSPQDNYYMDVWGKGTTVIVSS
# VL: EIVLTQSPGTLSLSPGERATFSCRSSHSIRSRRVAWYQHKPGQAPRLVIHGVSNRASGISDRFSGSGSGTDFTLTITRVEPEDFALYYCQVYGASSYTFGQGTKLERK
# notes: also called mature b12; mature b12 IgG
# B2: b12 IgG, germline heavy chain with S31N/A52P/G53Y/G100W, paired with the mature light chain (antibody, V domains shown)
# VH: QVQLVQSGAEVKKPGASVKVSCKASGYTFTNYAMHWVRQAPGQRLEWMGWINPYNGNTKYSQKFQGRVTITRDTSASTAYMELSSLRSEDTAVYYCARVGPYCWGDSPQDNYYMDVWGKGTTVTVSS
# VL: EIVLTQSPGTLSLSPGERATFSCRSSHSIRSRRVAWYQHKPGQAPRLVIHGVSNRASGISDRFSGSGSGTDFTLTITRVEPEDFALYYCQVYGASSYTFGQGTKLERK
# B3: b12 IgG, germline heavy chain with G100W, paired with the mature light chain (antibody, V domains shown)
# VH: QVQLVQSGAEVKKPGASVKVSCKASGYTFTSYAMHWVRQAPGQRLEWMGWINAGNGNTKYSQKFQGRVTITRDTSASTAYMELSSLRSEDTAVYYCARVGPYCWGDSPQDNYYMDVWGKGTTVTVSS
# VL: EIVLTQSPGTLSLSPGERATFSCRSSHSIRSRRVAWYQHKPGQAPRLVIHGVSNRASGISDRFSGSGSGTDFTLTITRVEPEDFALYYCQVYGASSYTFGQGTKLERK
# B4: germline IgG b12 (antibody, V domains shown)
# VH: QVQLVQSGAEVKKPGASVKVSCKASGYTFTSYAMHWVRQAPGQRLEWMGWINAGNGNTKYSQKFQGRVTITRDTSASTAYMELSSLRSEDTAVYYCARVGPYCGGDSPQDNYYMDVWGKGTTVTVSS
# VL: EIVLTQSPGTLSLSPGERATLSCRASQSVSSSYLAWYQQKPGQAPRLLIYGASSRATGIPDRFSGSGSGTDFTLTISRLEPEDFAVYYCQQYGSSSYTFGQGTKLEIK
# notes: also called germline b12; soluble germline version of IgG b12
# B5: NIH45-46 chimeric IgG, germline heavy chain with mature light chain (antibody, V domains shown)
# VH: not shown
# VL: EIVLTQSPATLSLSPGETAIISCRTSQSGSLAWYQQRPGQAPRLVIYSGSTRAAGIPDRFSGSRWGADYNLSISNLESGDFGVYYCQQYEFFGQGTKVQVD
# B6: 3BNC60 chimeric IgG, germline heavy chain with mature light chain (antibody, V domains shown)
# VH: not shown
# VL: DIQMTQSPSSLSARVGDTVTITCQANGYLNWYQQRRGKAPKLLIYDGSKLERGVPARFSGRRWGQEYNLTINNLQPEDVATYFCQVYEFIVPGTRLDLK
# notes: also called gHC/mLC (3BNC60)
# Legend:
# QH0692 gp140 trimer = biological target: T1, QH0692 gp140 trimer (HIV-1 clade B, isolate QH0692, UniProt Q5G5V7, strain); assay: ELISA; conditions: both partners purified
# T1 construct: also called trimeric QH0692 gp140
# SF162 gp140 trimer = biological target: T2, SF162 gp140 trimer (HIV-1 clade B, isolate SF162, UniProt P19550, strain); assay: ELISA; conditions: both partners purified
# T2 construct: also called trimeric SF162 gp140
# SF162 gp120 [1] = biological target: T3, SF162 gp120 (HIV-1 clade B, isolate SF162, UniProt P19550); assay: cell-based or functional assay
# 426c gp140 [2] = biological target: 426c gp140 (HIV-1 clade C, 426c, UniProt M4Q8P8, strain); assay: BLI; antibody-capture: IgG (15 µg/mL in PBS) on anti-human IgG Fc capture biosensors; Env in solution at one concentration (1.2 µM in the legend, 1.02 µM in the methods) in 1x kinetics buffer (PBS, 0.01% BSA, 0.02% Tween 20, 0.005% NaN3); conditions: both partners purified
# SF162 gp120 [3] = biological target: T3, SF162 gp120; assay: ELISA; conditions: both partners purified
# HXB2 gp120 = biological target: T4, HXB2 gp120 (HIV-1 clade B, isolate HXB2, UniProt P04578); assay: ELISA; conditions: both partners purified
# T4 construct: also called HXBc2; HXB2 Env; source: bought: Immune Technologies
# 426c gp140 [4] = biological target: 426c gp140 (HIV-1 clade C, 426c, UniProt M4Q8P8, strain); assay: BLI; antibody-capture: IgG (15 µg/mL in PBS) on anti-human IgG Fc capture biosensors; Env in solution at one concentration (1.2 µM in the legend, 1.02 µM in the methods) in 1x kinetics buffer (PBS, 0.01% BSA, 0.02% Tween 20, 0.005% NaN3); conditions: both partners purified; remark: listed apart in the source
# Q168a2 gp140 = Q168a2 gp140 (HIV-1 clade A, Q168a2, UniProt Q8JDN0, strain); assay: as above; conditions: both partners purified
# Q461e2 gp140 = Q461e2 gp140 (HIV-1 clade A, Q461e2, UniProt Q8JDJ9, strain); assay: as above; conditions: both partners purified
# QH0692 gp120 = biological target: T5, QH0692 gp120 (HIV-1 clade B, isolate QH0692, UniProt Q5G5V7, strain); assay: BLI; conditions: both partners purified
# T5 construct: also called QH0692 Env; recombinant QH0692 Env; source: bought: Immune Technologies
Binder,binding result (SF162 gp140 trimer),binding result (SF162 gp120 [3]),binding result (HXB2 gp120),binding result (QH0692 gp120),other results
B1,binds,–,–,–,"binding result (QH0692 gp140 trimer): binds; neutralisation of SF162 virions (luciferase reporter cells), IC50 (SF162 gp120 [1]): 0.01 µg/mL; binding result (426c gp140 [2]): binds"
B2,–,no binding (tested: 30 µg/mL),binds,–,–
B3,–,no binding (tested: 30 µg/mL),no binding (tested: 30 µg/mL),–,–
B4,no binding (tested: 30 µg/mL),–,–,–,binding result (426c gp140 [4]): no binding (tested: 1.2 µM); binding result (Q168a2 gp140): no binding (tested: 1.2 µM); binding result (Q461e2 gp140): no binding (tested: 1.2 µM)
B5,–,–,–,no binding (tested: 100 nM; less than 0.2 nM shift),–
B6,–,–,–,no binding (tested: 100 nM; less than 0.2 nM shift),–
